In patent publication US20240158497A1 (published 2024):

T1: human gp130 expressed endogenously on IMR-32/Stat3-luc cells (human, UniProt P40189 23-918)
T1 construct: Endogenous gp130 of the human neuroblastoma line IMR-32
T1 sequence: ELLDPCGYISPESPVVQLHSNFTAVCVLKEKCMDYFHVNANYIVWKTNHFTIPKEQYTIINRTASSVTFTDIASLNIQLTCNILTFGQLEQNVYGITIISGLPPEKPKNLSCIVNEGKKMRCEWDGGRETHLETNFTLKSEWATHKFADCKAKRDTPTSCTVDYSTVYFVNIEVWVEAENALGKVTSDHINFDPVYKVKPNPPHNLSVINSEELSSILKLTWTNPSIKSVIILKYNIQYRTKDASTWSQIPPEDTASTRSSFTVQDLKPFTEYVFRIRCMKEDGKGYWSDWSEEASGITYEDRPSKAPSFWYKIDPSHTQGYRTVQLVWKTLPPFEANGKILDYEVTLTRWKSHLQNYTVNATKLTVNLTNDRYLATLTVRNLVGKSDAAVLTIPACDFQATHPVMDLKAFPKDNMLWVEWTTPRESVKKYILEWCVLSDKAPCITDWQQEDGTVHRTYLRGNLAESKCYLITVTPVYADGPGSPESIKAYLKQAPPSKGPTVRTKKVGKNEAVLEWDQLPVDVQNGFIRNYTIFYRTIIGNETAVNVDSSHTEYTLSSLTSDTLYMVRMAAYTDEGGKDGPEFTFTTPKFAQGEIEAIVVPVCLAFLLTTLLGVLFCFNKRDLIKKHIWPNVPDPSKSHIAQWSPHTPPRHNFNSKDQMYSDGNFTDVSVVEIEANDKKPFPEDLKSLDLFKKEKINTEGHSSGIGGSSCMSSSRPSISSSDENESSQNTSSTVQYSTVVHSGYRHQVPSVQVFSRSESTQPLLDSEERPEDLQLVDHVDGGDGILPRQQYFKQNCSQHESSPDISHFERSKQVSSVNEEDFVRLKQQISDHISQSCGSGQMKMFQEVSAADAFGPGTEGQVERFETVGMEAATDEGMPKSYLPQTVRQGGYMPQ

B1: MAb16665 (antibody, V domains shown)
VH: QVQLVESGGGVVQPGRSLRLACAASGFTFRSYGMHWVRQAPGKGLEWVAVIWYDGSNKYYTDSVKGRFTISRDNSKNTLYLQMNSLRAEDTAMYYCAIDKWATVTTYLFDYWGQGTLVTVSS
VL: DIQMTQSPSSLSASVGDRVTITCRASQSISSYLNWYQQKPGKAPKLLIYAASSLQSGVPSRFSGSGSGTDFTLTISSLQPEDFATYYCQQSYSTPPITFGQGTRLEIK
notes: hIgG4 isotype control used
B2: MAb16662 (antibody, V domains shown)
VH: EVQLVESGGGLVQPGGSLRLSCTASGFTFSNYAIFWVRQAPGKGLEYVSGISNNGVTKYYADSVRDRFTISRDNSRNTVSIQMDSLRTEDMAVYYCARENWGSDDGFDIWGQGTMVTVSS
VL: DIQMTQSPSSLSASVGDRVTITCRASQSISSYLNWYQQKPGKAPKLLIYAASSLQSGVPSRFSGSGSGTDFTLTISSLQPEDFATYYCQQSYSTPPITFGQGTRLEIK
notes: hIgG4 isotype control used
B3: MAb16659 (antibody, V domains shown)
VH: QVQLVQSGPEVKKPGSSVKVSCKASGGTIDRNEITWVRQAPGQGLEWMGVIIPILGEAHYERKFQGRLTITMDESTSTAYMELSNLRSEDTAVYYCARERAARGYLDYWGQGTLVTVSS
VL: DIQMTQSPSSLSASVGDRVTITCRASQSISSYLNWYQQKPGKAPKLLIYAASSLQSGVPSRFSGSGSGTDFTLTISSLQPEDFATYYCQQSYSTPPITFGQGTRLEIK
notes: hIgG4 isotype control used
B4: MAb16676 (antibody, V domains shown)
VH: QVQLVQSGAEVMKPGASVKVSCRASGYTFSSYDINWVRQAPGQGLEWMGWISTATGNTNYPQKVQGRVTMTTDTSTNTAYMELRSLRSDDTAVYYCTREGNSKGWLDPWGQGTLVTVSS
VL: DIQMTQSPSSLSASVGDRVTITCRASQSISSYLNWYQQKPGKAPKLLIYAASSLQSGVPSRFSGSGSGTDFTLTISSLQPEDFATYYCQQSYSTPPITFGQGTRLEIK
notes: hIgG4 isotype control used
B5: MAb16669 (antibody, V domains shown)
VH: EVQLVESGGGLVQPGGSLRLSCAASGFTFSSYAMNWVRQAPGKGLEWVSAISGSGDSTYYTDSVKGRFTISRDNSKNTLYLQMNTLRAEDTAVYYCAKEEIVMLVGATPGWFDPWGQGTLVTVSS
VL: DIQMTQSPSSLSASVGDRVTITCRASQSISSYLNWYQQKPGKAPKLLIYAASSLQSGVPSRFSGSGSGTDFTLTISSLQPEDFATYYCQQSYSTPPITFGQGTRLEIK
notes: hIgG4 isotype control used
B6: MAb16637 (antibody, V domains shown)
VH: QVQLVQSGAEVKKPGASVKVSCKASGYTFTSLGISWVRQAPGQGLEWMGWISAYSGNRDYAQKFQGRVTMTTDTSTSTAYMELRSLRSDDTAVYYCARSLRFDYWGQGTLVTVSS
VL: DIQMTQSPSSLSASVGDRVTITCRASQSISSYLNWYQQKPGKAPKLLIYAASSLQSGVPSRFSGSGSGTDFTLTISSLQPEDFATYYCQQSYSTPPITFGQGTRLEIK
notes: hIgG4 isotype control used
B7: MAb16683 (antibody, V domains shown)
VH: QVQLVESGGGLVKPGGSLRLSCAASGFTFSDYYMTWIRQTPGKGLDWVSYISSSGTNKYNADSVKGRFTISRDNAKNSLYLQMNSLRAEDTAVYYCVRDPPWGMDVWGQGTTVTVSS
VL: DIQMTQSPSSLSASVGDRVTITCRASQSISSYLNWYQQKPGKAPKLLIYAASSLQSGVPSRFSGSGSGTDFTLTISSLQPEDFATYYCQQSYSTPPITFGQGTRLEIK
notes: hIgG4 isotype control used
B8: MAb16656 (antibody, V domains shown)
VH: EVQLVESGGGLVQPGRSLRLSCAASGFTLDDFAMHWVRQAPGKGLEWVSGISWNSGNIGYADSVKGRFTISRDNARNSLYLQMNSLRAEDTALYYCTSGYYLYYAMDVWGQGTTVTVSS
VL: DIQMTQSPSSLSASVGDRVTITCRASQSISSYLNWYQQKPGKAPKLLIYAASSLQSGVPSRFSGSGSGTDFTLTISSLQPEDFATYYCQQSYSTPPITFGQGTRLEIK
notes: hIgG4 isotype control used
B9: MAb16673 (antibody, V domains shown)
VH: EVQLVQSGAEVKKPGESLKISCKGSGYSFTSYWIDWVRQMPGKGLEWMGIIYPDDSDTRYSPSFQGQVTMSVDKSISTAYLQWSSLKASDTAIYYCARHERGIVEAGTDYYYYYGMDVWGQGTTVTVSS
VL: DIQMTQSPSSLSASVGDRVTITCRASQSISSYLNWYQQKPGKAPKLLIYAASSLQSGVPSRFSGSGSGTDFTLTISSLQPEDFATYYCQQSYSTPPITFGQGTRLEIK
notes: hIgG4 isotype control used
B10: MAb16622 (antibody, V domains shown)
VH: EVQLVESGGGVVRPGGSLRLSCTASGFTFDDYGMSWVRQAPGKGLEWVSGINWNGGRTEYADAVKGRFIISRDNAKNSLYLQMNSLRAEDTALYFCARTELRWDYWGQGTLVTVSS
VL: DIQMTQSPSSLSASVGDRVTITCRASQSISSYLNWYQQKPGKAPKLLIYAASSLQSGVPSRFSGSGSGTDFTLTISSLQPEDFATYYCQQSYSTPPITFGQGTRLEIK
notes: hIgG4 isotype control used
B11: MAb16682 (antibody, V domains shown)
VH: EVQLVESGGGLVQPGGSLRLSCAASGFTFSTYWMNWVRQAPGKGLEWVANIKEDGSEKYYVDSVKGRFTISRDNAKNSLYLQMNSLRAEDTAVYYCAREGFGVVTYIWGQGTMVTVSS
VL: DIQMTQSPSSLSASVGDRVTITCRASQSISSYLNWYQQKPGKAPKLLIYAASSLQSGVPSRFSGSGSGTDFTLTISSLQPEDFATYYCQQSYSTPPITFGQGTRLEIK
notes: hIgG4 isotype control used
B12: MAb16618 (antibody, V domains shown)
VH: QVQLQESGPGLVKPSETLSLTCTVSGGSISNYYWTWIRQPPGKGLEWIGHISNSGTTNYNPSLKSRVTISVDTSKNQFSLKLTSVTAADTAVYYCARLPLGIAAVDTDYYYYFGMDVWGQGTTVTVSS
VL: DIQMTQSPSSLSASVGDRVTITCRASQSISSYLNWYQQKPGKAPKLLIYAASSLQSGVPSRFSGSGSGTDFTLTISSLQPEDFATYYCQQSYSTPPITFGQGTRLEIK
notes: hIgG4 isotype control used
B13: MAb16636 (antibody, V domains shown)
VH: QLQLQESGPGLVKPSETLSLICTVSGGSISSNNYYWGWIRQPPGKGLEWIGNLYGSGSTYYNPSLKSRVTISVDTSKNQFSLKLSFVTAADTAVYHCARWDTNGGAFDIWGQGTMVTVSS
VL: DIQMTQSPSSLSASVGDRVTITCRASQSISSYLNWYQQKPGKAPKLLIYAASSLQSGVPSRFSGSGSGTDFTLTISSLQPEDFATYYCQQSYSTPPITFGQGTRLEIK
notes: hIgG4 isotype control used
B14: MAb16614 (antibody, V domains shown)
VH: QVQLVESGGGVVQPGGSLRLSCAASGFTFSTYDIHWVRQAPGKGLEWVAVISFDGSNRNYGDSVKGRFTISRDNSDNTLFLEMNNLRFEDTAVYYCAKEGYGVDFQHWGQGTLVTVSS
VL: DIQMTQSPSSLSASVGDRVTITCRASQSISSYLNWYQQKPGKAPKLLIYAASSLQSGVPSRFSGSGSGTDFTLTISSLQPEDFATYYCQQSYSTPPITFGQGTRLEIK
notes: hIgG4 isotype control used
B15: MAb16664 (antibody, V domains shown)
VH: QVQLVQSGTEVKKPGSSVKVSCKASGGTFSTYPINWVRQAPGQGLEWMGGIIPIFGTASYAQKFQGRVAITTDESTSTAYMELNSLRSEDTAVYYCARERPNWGSNDYWGQGTLVTVSS
VL: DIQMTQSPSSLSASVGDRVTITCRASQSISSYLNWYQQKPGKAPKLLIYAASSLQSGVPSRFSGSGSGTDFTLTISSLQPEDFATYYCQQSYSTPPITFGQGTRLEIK
notes: hIgG4 isotype control used
B16: MAb16623 (antibody, V domains shown)
VH: EVQLVESGGGLVQPGGSLRLSCAASGLTFSSYEMNWVRQAPGKGLEWVSHISSAGSTKYYADSVKGRFTISRDNAKNSLFLQMNSLRAEDTAIYYCAGYNYAYYYFGVDVWGQGTTVTVSS
VL: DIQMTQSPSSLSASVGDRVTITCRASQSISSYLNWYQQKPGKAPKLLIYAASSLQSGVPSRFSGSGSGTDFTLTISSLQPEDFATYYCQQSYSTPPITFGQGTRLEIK
notes: hIgG4 isotype control used
B17: MAb16666 (antibody, V domains shown)
VH: EVQLVESGGGLVQSGGSLRLSCAASGFTFSRYEMNWVRQAPGKGLEWVAYISNTGTTRDYSDSVKGRFTISRDNAKNSLYLQMSSLRVEDTAVYYCVREKFSGTSDWFDPWGQGTLVTVSS
VL: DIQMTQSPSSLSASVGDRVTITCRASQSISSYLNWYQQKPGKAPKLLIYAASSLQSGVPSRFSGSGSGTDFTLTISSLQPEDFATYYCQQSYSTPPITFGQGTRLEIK
notes: hIgG4 isotype control used

Target: T1, human gp130 expressed endogenously on …
Assay: FACS, 10 nM Ab, IMR-32/Stat3-luc cells, no hGP130.mmh
Source text: In order to assess cell binding by anti-GP130 antibodies of the invention two cell lines were generated. One cell line generated was HEK293 cells stably over-expressing full length (FL) human gp130 (amino acids 1-918 of accession #P40189 with leucine at position 2 changed to valine, a natural variant) along with a luciferase reporter (Stat3-luciferase, Stat3-luc, SA Bioscience, #CLS-6028L). The cells were sorted twice using flow cytometry for high expression of gp130. It is known hereafter as HEK293/Stat3-luc/gp130-2 X Sort. IMR-32 cells (human Neuroblastoma, ATCC), were also evaluated for cell binding as these cells express gp130 endogenously and were used for bioassays. The cells used for binding were generated to stably express a luciferase reporter (Stat3-luciferase, Stat3-luc, SA Bioscience, #CLS-6028L), and are referred to hereafter as IMR-32/STAT3-Luc cells.
For the FACS analysis, 10 nM of the antibodies were used to stain 0.5×10⁶ cells/well of each cell type at 4° C. in PBS (without calcium and magnesium) containing 2% FBS for 30 minutes. IMR-32/STAT3-luc cells were incubated with 1 mg/mL mouse IgG for 30 minutes at 4° C. to block Fc receptors prior to adding the antibodies. To test whether the anti-gp130 antibody binding is specific for gp130 on the IMR-32 cells, antibodies were added to IMR-32/Stat3-luc cells with or without being pre-bound to 1000 nM of recombinant protein of the ecto-domain of human gp130 fused to myc-myc-his tag (hgp130.mmh) for 30 minutes at 25° C. […] Cells were fixed using BD CytoFix™ (Becton Dickinson, #554655) and analyzed on an IQue® (Intellicyt®) Flow Cytometer. Unstained and secondary antibody alone controls were also tested for all cell lines. The results were analyzed using ForeCyt® (IntelliCyt®) software to determine the geometric means of fluorescence for viable cells.

Binder | MFI - Normalized to Unstained Control
B1 | 5 ratio
B2 | 5 ratio
B3 | 8 ratio
B4 | 9 ratio
B5 | 6 ratio
B6 | 9 ratio
B7 | 9 ratio
B8 | 12 ratio
B9 | 10 ratio
B10 | 5 ratio
B11 | 6 ratio
B12 | 7 ratio
B13 | 8 ratio
B14 | 7 ratio
B15 | 7 ratio
B16 | 8 ratio
B17 | 23 ratio
